Laboratory results reported in patent US20160305952A1 (ROCHE SEQUENCING SOLUTIONS, published 2016).
Where no end group is shown, it is not given here.

B1: GTDFEVYFPKI (peptide)
peptide: GTDFEVYFPKI
B2: GTGWEVHLGKG (peptide)
peptide: GTGWEVHLGKG
B3: ALDWQVYAGFG (peptide)
peptide: ALDWQVYAGFG
B4: ALYLF (peptide)
peptide: ALYLF
modifications: also: array-bound via 5Z linker
B5: AIAIF (peptide)
peptide: AIAIF
modifications: also: array-bound via 5Z linker
B6: TAVFV (peptide)
peptide: TAVFV
modifications: also: array-bound via 5Z linker
B7: VTVYV (peptide)
peptide: VTVYV
modifications: also: array-bound via 5Z linker
B8: HYFEF (peptide)
peptide: HYFEF
modifications: also: array-bound via 5Z linker
B9: HEFSF (peptide)
peptide: HEFSF
modifications: also: array-bound via 5Z linker
B10: WKAEK (peptide)
peptide: WKAEK
modifications: also: array-bound via 5Z linker
B11: WDWDW (peptide)
peptide: WDWDW
modifications: also: array-bound via 5Z linker
B12: WTKVK (peptide)
peptide: WTKVK
modifications: also: array-bound via 5Z linker
B13: WKEDW (peptide)
peptide: WKEDW
modifications: also: array-bound via 5Z linker
B14: KKWDWDWKW (peptide)
peptide: KKWDWDWKW
modifications: also: array-bound via 3Z linker
B15: YEWTKVKNY (peptide)
peptide: YEWTKVKNY
modifications: also: array-bound via 3Z linker
B16: FGWKAEKFN (peptide)
peptide: FGWKAEKFN
modifications: also: array-bound via 3Z linker
B17: YKWKEDWKW (peptide)
peptide: YKWKEDWKW
modifications: also: array-bound via 3Z linker
B18: YSWTKVKDY (peptide)
peptide: YSWTKVKDY
modifications: also: array-bound via 3Z linker
B19: GEHYFEFAP (peptide)
peptide: GEHYFEFAP
modifications: also: array-bound via 3Z linker
B20: QQHYFEFEK (peptide)
peptide: QQHYFEFEK
modifications: also: array-bound via 3Z linker
B21: GEHYFEFQQ (peptide)
peptide: GEHYFEFQQ
modifications: also: array-bound via 3Z linker
B22: YEHEFSFGT (peptide)
peptide: YEHEFSFGT
modifications: also: array-bound via 3Z linker
B23: GQHEFSFGT (peptide)
peptide: GQHEFSFGT
modifications: also: array-bound via 3Z linker
B24: RSWDWDWKK (peptide)
peptide: RSWDWDWKK
modifications: also: array-bound via 3Z linker
B25: NH2-WTHPQFEQK-COOH (peptide)
peptide: H-WTHPQFEQK-OH
notes: free peptide, C-terminal carboxylic acid
B26: NH2-ADYLAEYHGG-COOH (peptide)
peptide: H-ADYLAEYHGG-OH
notes: as for B25
B27: NH2-WTHPQFEQPKA-amide (peptide)
peptide: H-WTHPQFEQPKA-NH2
notes: free peptide
B28: NH2-AFDYLAQYHGG-amide (peptide)
peptide: H-AFDYLAQYHGG-NH2
notes: free peptide
B29: NH2-AFPDYLAEYHGG-amide (peptide)
peptide: H-AFPDYLAEYHGG-NH2
notes: free peptide
B30: NH2-SAWSHPQFEK-COOH (peptide)
peptide: H-SAWSHPQFEK-OH
notes: free peptide, C-terminal carboxylic acid; bought from IBA; also called Strep-tag II peptide; Strep-Tag II
B31: NH2-NSFDDWLAKGG-COOH (peptide)
peptide: H-NSFDDWLAKGG-OH
notes: as for B25
B32: WTVYA (peptide)
peptide: WTVYA
modifications: also: array-bound via 5Z linker
B33: RSILY (peptide)
peptide: RSILY
modifications: also: array-bound via 5Z linker
B34: FEVYL (peptide)
peptide: FEVYL
modifications: also: array-bound via 5Z linker
B35: WEVHL (peptide)
peptide: WEVHL
modifications: also: array-bound via 5Z linker
B36: TDFEVYLPK (peptide)
peptide: TDFEVYLPK
modifications: also: array-bound via 3Z linker
B37: SCRSILYGQ (peptide)
peptide: SCRSILYGQ
modifications: also: array-bound via 3Z linker
B38: SCRSILYGP (peptide)
peptide: SCRSILYGP
modifications: also: array-bound via 3Z linker
B39: GQWEVHLGK (peptide)
peptide: GQWEVHLGK
modifications: also: array-bound via 3Z linker
B40: TGWEVHLGK (peptide)
peptide: TGWEVHLGK
modifications: also: array-bound via 3Z linker
B41: NGFEVYLPG (peptide)
peptide: NGFEVYLPG
modifications: also: array-bound via 3Z linker
B42: GDWTVYAGN (peptide)
peptide: GDWTVYAGN
modifications: also: array-bound via 3Z linker
B43: SCRSILYND (peptide)
peptide: SCRSILYND
modifications: also: array-bound via 3Z linker
B44: GQFEVYLPG (peptide)
peptide: GQFEVYLPG
modifications: also: array-bound via 3Z linker
B45: SEWTVYAGN (peptide)
peptide: SEWTVYAGN
modifications: also: array-bound via 3Z linker
B46: QAAIAIFGG (peptide)
peptide: QAAIAIFGG
modifications: also: array-bound via 3Z linker
B47: TSVTVYVNN (peptide)
peptide: TSVTVYVNN
modifications: also: array-bound via 3Z linker
B48: DGALYLFGN (peptide)
peptide: DGALYLFGN
modifications: also: array-bound via 3Z linker
B49: GGTAVFVNT (peptide)
peptide: GGTAVFVNT
modifications: also: array-bound via 3Z linker

Each binder was assayed against T1, Prostate Specific Antigen (human, UniProt P07288 25-261) (assay: peptide array, double substitution/deletion library).
T1 construct: also called PSA
T1 sequence (P07288 25-261 limits assumed): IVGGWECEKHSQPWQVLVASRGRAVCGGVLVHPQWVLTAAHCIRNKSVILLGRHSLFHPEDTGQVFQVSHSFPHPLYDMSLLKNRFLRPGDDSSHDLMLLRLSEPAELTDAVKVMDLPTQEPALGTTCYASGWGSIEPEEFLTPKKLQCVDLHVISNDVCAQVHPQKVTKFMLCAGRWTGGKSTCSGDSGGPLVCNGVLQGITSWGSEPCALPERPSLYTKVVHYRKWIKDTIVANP

Binder	binding result
B1	binds
B2	binds
B3	binds

The binders below were run against T2, Tumor Necrosis Factor Alpha (human, UniProt P01375 77-233) (assay: peptide array, 5-mer library, 5Z linker).
T2 construct: also called TNFα; TNF-α
T2 sequence (P01375 77-233 limits assumed): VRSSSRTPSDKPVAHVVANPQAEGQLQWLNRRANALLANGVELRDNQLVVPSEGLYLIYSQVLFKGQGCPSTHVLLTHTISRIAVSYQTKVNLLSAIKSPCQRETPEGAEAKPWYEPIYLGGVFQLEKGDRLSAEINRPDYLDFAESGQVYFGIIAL

Binder	binding result
B4	binds
B5	binds
B6	binds
B7	binds

The binders below were run against T3, Taq polymerase (UniProt P19821 1-832) (assay: peptide array, 5-mer library, 5Z linker).
T3 sequence (P19821 whole entry): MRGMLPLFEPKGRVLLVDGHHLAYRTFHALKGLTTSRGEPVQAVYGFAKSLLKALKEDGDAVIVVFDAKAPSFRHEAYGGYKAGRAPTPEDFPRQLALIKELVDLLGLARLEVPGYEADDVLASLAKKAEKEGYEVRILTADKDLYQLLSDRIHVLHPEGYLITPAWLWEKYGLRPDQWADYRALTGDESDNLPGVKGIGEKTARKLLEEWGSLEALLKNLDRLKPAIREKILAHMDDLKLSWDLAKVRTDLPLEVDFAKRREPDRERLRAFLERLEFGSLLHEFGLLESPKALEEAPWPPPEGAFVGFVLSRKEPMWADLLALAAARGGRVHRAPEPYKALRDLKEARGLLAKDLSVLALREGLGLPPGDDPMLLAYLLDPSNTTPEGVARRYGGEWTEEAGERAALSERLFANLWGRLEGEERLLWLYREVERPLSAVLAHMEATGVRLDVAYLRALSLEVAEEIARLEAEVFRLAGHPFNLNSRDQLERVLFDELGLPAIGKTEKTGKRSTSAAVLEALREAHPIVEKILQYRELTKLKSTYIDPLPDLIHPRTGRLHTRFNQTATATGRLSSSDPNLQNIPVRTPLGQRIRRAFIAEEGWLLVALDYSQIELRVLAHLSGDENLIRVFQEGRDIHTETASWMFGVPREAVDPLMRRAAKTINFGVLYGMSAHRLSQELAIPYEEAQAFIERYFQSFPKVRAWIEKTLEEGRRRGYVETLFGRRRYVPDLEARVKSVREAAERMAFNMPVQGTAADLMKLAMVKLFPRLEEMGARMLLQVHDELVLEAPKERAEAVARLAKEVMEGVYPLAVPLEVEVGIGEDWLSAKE

Binder	binding result
B8	binds
B9	binds
B10	binds
B11	binds
B12	binds
B13	binds

What follows are binders tested against T3, Taq polymerase (assay: peptide array, extension library, 3Z linker).

Binder	binding result
B14	binds
B15	binds
B16	binds
B17	binds
B18	binds
B19	binds
B20	binds
B21	binds
B22	binds
B23	binds
B24	binds

These binders were tested against T4, streptavidin (UniProt P22629 37-163, limits assumed) (assay: SPR, Biacore X100, streptavidin on CM5 chip, peptide in solution).
T4 construct: amine-coupled to a CM5 chip for SPR; also called SA
T4 sequence (P22629 37-163 limits assumed): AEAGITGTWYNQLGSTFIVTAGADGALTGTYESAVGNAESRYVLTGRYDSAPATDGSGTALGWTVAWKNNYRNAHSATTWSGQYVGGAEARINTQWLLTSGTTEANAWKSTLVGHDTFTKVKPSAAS
Text: A selection of streptavidin peptide binders listed in Table 15 were synthesized using standard column-based synthesis techniques by UW Biotechnology center (Madison, Wis.) or by Peptide2.0 (Chantilly, Va.) at 98-99% purity. Strep-tag II peptide NH2-[…]-COOH was purchased from IBA GmbH (Goettingen, Germany). Synthesized peptides were then characterized by Surface Plasmon Resonance (SPR) to identify binding characteristics including the association rate constant (kₛ), dissociation rate constant (kd), and equilibrium dissociation […] (kd/kₐ=KD). In one aspect, SPR experiments were performed by using Biacore X100 instrument (GE Healthcare). Preliminarily, 60 μl of 100 μg/ml streptavidin in 10 mM Na-acetate, pH5.0 was immobilized to flow cell 2 (Fc2) of a sensor chip CM5 (GE Healthcare) using Amine Coupling Kit (GE Healthcare) at 20° C. for 6 min. Peptide stock solutions were prepared at 5 or 10 mM concentration in water and diluted in HBS-EP+ (GE Healthcare) buffer before SPR experiments. Peptide binding was performed in a multiple kinetics mode using HBS-EP+ as a running buffer and 0.2 M NaCl, 10 mM NaOH or 10 mM HCl-glycine, […] as regeneration buffer. Binding kinetics parameters were calculated with Biacore X100 software.

Binder	Kd [µM]	koff [s⁻¹]	kon [M⁻¹ s⁻¹]
B25	15.5		
B26	96		
B27	7.9		
B28	1.52	0.0354	23300
B29	0.043	0.00128	30100
B30	49.8		
B31	11.3		

The binders below were run against T1, Prostate Specific Antigen (assay: peptide array, 5-mer library, 5Z linker).

Binder	binding result
B32	binds
B33	binds
B34	binds
B35	binds

Each binder was assayed against T1, Prostate Specific Antigen (assay: peptide array, extension library, 3Z linker).

Binder	binding result
B36	binds
B37	binds
B38	binds
B39	binds
B40	binds
B41	binds
B42	binds
B43	binds
B44	binds
B45	binds

Each binder was assayed against T2, Tumor Necrosis Factor Alpha (assay: peptide array, extension library, 3Z linker).

Binder	binding result
B46	binds
B47	binds
B48	binds
B49	binds
